Entries after “also recorded” stand apart in the source; their conditions may differ. *1 amine or outer side, *2 acyl side, *3 side chain or, on linkers, in order; H or OH if unused. Where a SMILES comes first, the peptide text is derived from it. Bridges are numbered along the chain shown (N, C = ends). [ ]: non-standard residue; d: D form. The star is where a group is joined. X1 = COc1cc2cc(c1Cl)N(C)C(=O)C[C@H](OC(=O)[C@H](C)N(C)C(=O)CCSSC(C)CCC(=O)*)[C@]1(C)O[C@H]1[C@H](C)[C@@H]1C[C@@](O)(NC(=O)O1)[C@H](OC)/C=C/C=C(\C)C2; 1Nal = N[C@@H](Cc1cccc2ccccc12)C(=O)O; TBMB = c1c(C[*:1])cc(C[*:3])cc1C[*:2]; Tle = CC(C)(C)[C@H](N)C(=O)O; βAla = NCCC(=O)O; Sar = CNCC(=O)O
Test system: EBC-1 xenograft
Test: Efficacy of BT1718 in EBC-1 xenograft model (Example 1)
Assay type: in vivo, Mus Musculus
Conditions: for Tumor Size (mm^3): Mean ± SEM
Method: The objective of this study was to evaluate the anti-tumor efficacy of BT1718 in EBC-1 xenograft model in female BALB/c nude mice.
The EBC-1 tumor cells were maintained in vitro as a monolayer culture in EMEM medium supplemented with 10% heat inactivated fetal bovine serum at 37° C. in an atmosphere of 5% CO2 in air. The tumor cells will be routinely subcultured twice weekly by trypsin-EDTA treatment. The cells growing in an exponential growth phase will be harvested and counted for tumor inoculation.
Each mouse was inoculated subcutaneously at the right flank with EBC-1 tumor cells (10×10^6) in 0.2 ml of PBS for tumor development. The animals were randomized and treatment was started when the average tumor volume reaches approximately 165 mm^3 for the efficacy study.
All the procedures related to animal handling, care and the treatment in the study were performed according to the guidelines of the Association for Assessment and Accreditation of Laboratory Animal Care (AAALAC). At the time of routine monitoring, the animals were daily checked for any effects of tumor growth and treatments on normal behavior such as mobility, food and water consumption (by looking only), body weight gain/loss (body weights were measured every day), eye/hair matting and any other abnormal effect as stated in the protocol. Death and observed clinical signs were recorded on the basis of the numbers of animals within each subset.
The major endpoint was to see if the tumor growth could be delayed or mice could be cured. Tumor size was measured three times weekly in two dimensions using a caliper, and the volume was expressed in mm^3 using the formula: V=0.5 a×b^2 where a and b are the long and short diameters of the tumor, respectively. The tumor size was then used for calculations of T/C value. The T/C value (in percent) is an indication of antitumor effectiveness; T and C are the mean volumes of the treated and control groups, respectively, on a given day.
TGI was calculated for each group using the formula: TGI (%)=[1−(Ti−T0)/(Vi−V0)]×100; Ti is the average tumor volume of a treatment group on a given day, T0 is the average tumor volume of the treatment group on the day of treatment start, Vi is the average tumor volume of the vehicle control group on the same day with Ti, and V0 is the average tumor volume of the vehicle group on the day of treatment start.
Summary statistics, including mean and the standard error of the mean (SEM), are provided for the tumor volume of each group at each time point.
Statistical analysis of difference in tumor volume among the groups was conducted on the data obtained at the best therapeutic time point after the final dose.
A one-way ANOVA was performed to compare tumor volume among groups, and when a significant F-statistics (a ratio of treatment variance to the error variance) was obtained, comparisons between groups were carried out with Games-Howell test. All data were analyzed using Prism. P<0.05 was considered to be statistically significant.

COc1cc2cc(c1Cl)N(C)C(=O)C[C@H](OC(=O)[C@H](C)N(C)C(=O)CCSSC(C)CCC(=O)NCCC(=O)N(C)CC(=O)N(C)CC(=O)N(C)CC(=O)N(C)CC(=O)N(C)CC(=O)N(C)CC(=O)N(C)CC(=O)N(C)CC(=O)N(C)CC(=O)N(C)CC(=O)N[C@@H](C)C(=O)N[C@H]1CSCc3cc4cc(c3)CSC[C@H](NC(=O)[C@@H](C)NC(=O)[C@H](Cc3cccc5ccccc35)NC(=O)[C@H](CCC(=O)O)NC(=O)[C@H](CC(N)=O)NC(=O)[C@@H](C)NC1=O)C(=O)N[C@@H](CCC(=O)O)C(=O)N[C@@H](CC(=O)O)C(=O)N[C@@H](Cc1ccccc1)C(=O)N[C@@H](Cc1ccc(O)cc1)C(=O)N[C@@H](CC(=O)O)C(=O)N[C@@H](C(C)(C)C)C(=O)N[C@H](C(N)=O)CSC4)[C@]1(C)O[C@H]1[C@H](C)[C@@H]1C[C@@](O)(NC(=O)O1)[C@H](OC)/C=C/C=C(\C)C2 (some centres unmarked) [BT1718] ({X1-βAla}-[Sar][Sar][Sar][Sar][Sar][Sar][Sar][Sar][Sar][Sar]AC[dA]NE[1Nal][dA]CEDFYD[Tle]C-NH2; linker 12-18-25 via TBMB (inferred))
tumor growth (3 mg/kg, twice weekly for two weeks): significant reduction in tumor growth
post-treatment monitoring (9 mg/kg qw group and 4.5 mg/kg biw group): re-growth after dosing cessation
tumor response (10 mg/kg tiw): complete tumor clearance
tumor response (10 mg/kg, twice weekly for two weeks): complete regressions
body weight effect (30 mg/kg qw): marked body weight loss; also recorded: severe body weight loss
tumor response (30 mg/kg qw, 15 mg/kg biw, 10 mg/kg tiw and 4.3 mg/kg qd, by day 14): completely regressed the tumor
Body Weight (1.3 mpk qd, day 0): 25.1 ± 0.3 g
Body Weight (% Change) (1.3 mpk qd, day 0): 0.0%
Tumor Volume (1.3 mpk qd, day 0): 161 ± 22 mm^3
Body Weight (1.3 mpk qd, day 2): 24.6 ± 0.6 g
Body Weight (% Change) (1.3 mpk qd, day 2): −2.0 ± 2.6%
Tumor Volume (1.3 mpk qd, day 2): 204 ± 30 mm^3
Body Weight (1.3 mpk qd, day 4): 24.9 ± 0.5 g
Body Weight (% Change) (1.3 mpk qd, day 4): −0.8 ± 1.7%
Tumor Volume (1.3 mpk qd, day 4): 243 ± 36 mm^3
Body Weight (1.3 mpk qd, day 7): 24.2 ± 0.5 g
Body Weight (% Change) (1.3 mpk qd, day 7): −3.5 ± 1.3%
Tumor Volume (1.3 mpk qd, day 7): 278 ± 35 mm^3
Body Weight (1.3 mpk qd, day 9): 24.5 ± 0.5 g
Body Weight (% Change) (1.3 mpk qd, day 9): −2.2 ± 2.0%
Tumor Volume (1.3 mpk qd, day 9): 326 ± 46 mm^3
Body Weight (1.3 mpk qd, day 11): 25.4 ± 0.4 g
Body Weight (% Change) (1.3 mpk qd, day 11): 1.3 ± 1.4%
Tumor Volume (1.3 mpk qd, day 11): 370 ± 40 mm^3
Body Weight (1.3 mpk qd, day 14): 25.2 ± 0.8 g
Body Weight (% Change) (1.3 mpk qd, day 14): 0.5 ± 3.2%
T/C (%) (1.3 mpk qd, day 14): 38%
TGI (%) (1.3 mpk qd, day 14): 71%
Tumor Volume (1.3 mpk qd, day 14): 473 ± 44 mm^3
Tumor Size (mm^3) (1.3 mpk qd, day 14): 473 ± 44 mm^3
Body Weight (3 mpk tiw, day 0): 24.0 ± 0.2 g
Body Weight (% Change) (3 mpk tiw, day 0): 0.0%
Tumor Volume (3 mpk tiw, day 0): 165 ± 13 mm^3
Body Weight (3 mpk tiw, day 2): 23.8 ± 0.3 g
Body Weight (% Change) (3 mpk tiw, day 2): −1.0 ± 0.9%
Tumor Volume (3 mpk tiw, day 2): 251 ± 18 mm^3
Body Weight (3 mpk tiw, day 4): 24.1 ± 0.3 g
Body Weight (% Change) (3 mpk tiw, day 4): 0.3 ± 0.7%
Tumor Volume (3 mpk tiw, day 4): 381 ± 26 mm^3
Body Weight (3 mpk tiw, day 7): 24.5 ± 0.2 g
Body Weight (% Change) (3 mpk tiw, day 7): 2.0 ± 0.2%
Tumor Volume (3 mpk tiw, day 7): 501 ± 41 mm^3
Body Weight (3 mpk tiw, day 9): 24.7 ± 0.2 g
Body Weight (% Change) (3 mpk tiw, day 9): 2.8 ± 0.6%
Tumor Volume (3 mpk tiw, day 9): 525 ± 40 mm^3
Body Weight (3 mpk tiw, day 11): 24.7 ± 0.2 g
Body Weight (% Change) (3 mpk tiw, day 11): 3.1 ± 1.0%
Tumor Volume (3 mpk tiw, day 11): 540 ± 46 mm^3
Body Weight (3 mpk tiw, day 14): 25.1 ± 0.2 g
Body Weight (% Change) (3 mpk tiw, day 14): 4.6 ± 1.5%
T/C (%) (3 mpk tiw, day 14): 52%
TGI (%) (3 mpk tiw, day 14): 56%
Tumor Volume (3 mpk tiw, day 14): 644 ± 56 mm^3
Tumor Size (mm^3) (3 mpk tiw, day 14): 644 ± 56 mm^3
Body Weight (4.3 mpk qd, day 0): 24.8 ± 0.4 g
Body Weight (% Change) (4.3 mpk qd, day 0): 0.0%
Tumor Volume (4.3 mpk qd, day 0): 165 ± 18 mm^3
Body Weight (4.3 mpk qd, day 2): 23.9 ± 0.5 g
Body Weight (% Change) (4.3 mpk qd, day 2): −3.4 ± 1.1%
Tumor Volume (4.3 mpk qd, day 2): 209 ± 7 mm^3
Body Weight (4.3 mpk qd, day 4): 23.6 ± 0.8 g
Body Weight (% Change) (4.3 mpk qd, day 4): −4.6 ± 2.0%
Tumor Volume (4.3 mpk qd, day 4): 154 ± 10 mm^3
Body Weight (4.3 mpk qd, day 7): 23.7 ± 0.5 g
Body Weight (% Change) (4.3 mpk qd, day 7): −4.2 ± 1.3%
Tumor Volume (4.3 mpk qd, day 7): 81 ± 3 mm^3
Body Weight (4.3 mpk qd, day 9): 23.5 ± 0.5 g
Body Weight (% Change) (4.3 mpk qd, day 9): −5.2 ± 1.2%
Tumor Volume (4.3 mpk qd, day 9): 39 ± 3 mm^3
Body Weight (4.3 mpk qd, day 11): 24.7 ± 0.7 g
Body Weight (% Change) (4.3 mpk qd, day 11): −0.4 ± 1.7%
Tumor Volume (4.3 mpk qd, day 11): 6 ± 3 mm^3
Body Weight (4.3 mpk qd, day 14): 23.5 ± 0.6 g
Body Weight (% Change) (4.3 mpk qd, day 14): −5.1 ± 1.9%
T/C (%) (4.3 mpk qd, day 14): 0%
TGI (%) (4.3 mpk qd, day 14): 115%
Tumor Volume (4.3 mpk qd, day 14): 0 ± 0 mm^3
Tumor Size (mm^3) (4.3 mpk qd, day 14): 0 ± 0 mm^3
Body Weight (4.5 mpk biw, day 0): 24.0 ± 0.6 g
Body Weight (% Change) (4.5 mpk biw, day 0): 0.0%
Tumor Volume (4.5 mpk biw, day 0): 161 ± 21 mm^3
Body Weight (4.5 mpk biw, day 2): 23.4 ± 0.6 g
Body Weight (% Change) (4.5 mpk biw, day 2): −2.2 ± 1.0%
Tumor Volume (4.5 mpk biw, day 2): 239 ± 15 mm^3
Body Weight (4.5 mpk biw, day 4): 23.7 ± 0.6 g
Body Weight (% Change) (4.5 mpk biw, day 4): −1.3 ± 0.7%
Tumor Volume (4.5 mpk biw, day 4): 276 ± 28 mm^3
Body Weight (4.5 mpk biw, day 7): 24.8 ± 0.7 g
Body Weight (% Change) (4.5 mpk biw, day 7): 3.3 ± 0.9%
Tumor Volume (4.5 mpk biw, day 7): 296 ± 29 mm^3
Body Weight (4.5 mpk biw, day 9): 24.2 ± 0.6 g
Body Weight (% Change) (4.5 mpk biw, day 9): 1.0 ± 0.7%
Tumor Volume (4.5 mpk biw, day 9): 285 ± 19 mm^3
Body Weight (4.5 mpk biw, day 11): 24.5 ± 0.7 g
Body Weight (% Change) (4.5 mpk biw, day 11): 2.4 ± 1.1%
Tumor Volume (4.5 mpk biw, day 11): 254 ± 46 mm^3
Body Weight (4.5 mpk biw, day 14): 25.1 ± 0.6 g
Body Weight (% Change) (4.5 mpk biw, day 14): 5.0 ± 0.7%
T/C (%) (4.5 mpk biw, day 14): 23%
TGI (%) (4.5 mpk biw, day 14): 89%
Tumor Volume (4.5 mpk biw, day 14): 285 ± 49 mm^3
Tumor Size (mm^3) (4.5 mpk biw, day 14): 285 ± 49 mm^3
Body Weight (4.5 mpk biw, day 16): 24.7 ± 0.8 g
Body Weight (% Change) (4.5 mpk biw, day 16): 3.1 ± 1.5%
Tumor Volume (4.5 mpk biw, day 16): 331 ± 60 mm^3
Body Weight (4.5 mpk biw, day 18): 25.2 ± 0.8 g
Body Weight (% Change) (4.5 mpk biw, day 18): 5.3 ± 1.6%
Tumor Volume (4.5 mpk biw, day 18): 409 ± 97 mm^3
Body Weight (4.5 mpk biw, day 21): 25.2 ± 0.7 g
Body Weight (% Change) (4.5 mpk biw, day 21): 5.2 ± 1.4%
